Measurements from patent publication US20040014707A1.

Target: PA specific receptor on A549 human lung epithelial cells

EGFP-PA32 fusion protein
fold signal over non-specific EGFP binding: 4 fold
